The values below come from patent US20180250376A1 (US Dept. of Health and Human Services, published 2018).

Where “and” joins values, the source holds several entries; their conditions need not be identical. Identical values can stand only once.

What is called Kd is the concentration at which binding is half-saturated.

The assay deals with PA-U7 (Bacillus anthracis, UniProt P13423 30-764).

B1: CMG2 on CHO CMG2-C4 cells (receptor)
chain: not shown
In the case of B1, the Kd is 8 nM and 12 nM.

B2: TEM8 on CHO TEM8-T4 cells (receptor)
chain: not shown
B2: the Kd was 25 nM and 35 nM.
